B1: SNV-42, human monoclonal antibody (IgG1) (antibody, V domains shown)
VH: EVQLVESGGGLVQPGGSLRLSCAASGFTFSTYEMNWVRQAPGKGLEWVSYIRSSGSTVYYADSVKGRFTISRDNAKNLLYLQMNSLRAGDTAVYYCARIPGGYTGYFDYWGQGALVTVSS
VL: QSVLTQPPSVSGAPGQRVTISCTGSSSNIGAGYYVHWYQQLPGTVPKLLIYGNNNRPSGVPDRFSGSKSGTSASLAITGLQTEDEADYYCQSYDSSLSGWVFGGGTKLTVL
B2: SNV-42 Fab (Fab, V domains shown)
VH: B1 VH
VL: B1 VL
B3: SNV-42^GR, germline-revertant form of SNV-42 (IgG1) (antibody, V domains shown)
VH: B1 VH with T31S, R52S, V58I, L78S, G89E, T104S, A114T
VL: B1 VL with Y34D, V45A, N54S, T82A
B4: SNV-42 F(ab')2 (other)
chain 1: B1 VH
chain 2: B1 VL

The term Kd denotes the equilibrium constant for the complex coming apart. As a reminder, the koff is the rate constant with which the complex falls apart. By kon is commonly meant a measure of how fast the partners come together.

Changes are numbered by the printed parent chain.

The assay concerns the target SNV Gn^H, recombinant histidine-tagged N-terminal ectodomain region (head domain) of Sin Nombre viru (Sin Nombre virus, UniProt Q89905). Nature of the assay: BLI. The settings on record: both partners purified.
Turning to B1, the Kd was < 0.001 nM, the off-rate constant (koff) was < 1e-07 s⁻¹ and the kon turned out to be 132000 M⁻¹ s⁻¹.

Take B2: the koff was found to be 0.00561 s⁻¹ and the kon came out at 139000 M⁻¹ s⁻¹.

As to B3, the Kd came out at 0.811 nM, the koff stood at 0.000454 s⁻¹ and the kon came out at 514000 M⁻¹ s⁻¹.

Consider B4, for which the Kd was < 0.001 nM, the koff was < 1e-07 s⁻¹ and the kon was 61400 M⁻¹ s⁻¹.
